Source: patent publication US20150065381A1
Where “and” joins values, the source holds several entries; their conditions need not be identical. Equal entries are not always repeated.

Legend:
[1] = target: HIV-1 envelope of gp160 clone B-Acute-010.c08 (HIV-1); experiment: capture ELISA, plate 1, mAb 0.8 ug/ml
[2] = target: HIV-1 16055 envelope (HIV-1); experiment: capture ELISA, plate 1, mAb 0.8 ug/ml
[3] = target: HIV-1 envelope clone F1-002.c16 (multiclade gp160 clone panel) (HIV-1); experiment: capture ELISA, plate 1, mAb 0.8 ug/ml
[4] = target: HIV-1 envelope of gp160 clone B-Acute-009-c08 (HIV-1); experiment: capture ELISA, plate 1, mAb 0.8 ug/ml
[5] = target: HIV-1 envelope of gp160 clone B-Acute-008.c11 (HIV-1); experiment: capture ELISA, plate 1, mAb 0.8 ug/ml
[6] = target: HIV-1 envelope of gp160 clone AG-010.c11 (HIV-1); experiment: capture ELISA, plate 1, mAb 0.8 ug/ml
[7] = target: HIV-1 envelope clone BF-002.c05 (multiclade gp160 clone panel) (HIV-1); experiment: capture ELISA, plate 1, mAb 0.8 ug/ml
[8] = target: HIV-1 envelope clone F1-002.c11 (multiclade gp160 clone panel) (HIV-1); experiment: capture ELISA, plate 1, mAb 0.8 ug/ml
[9] = target: HIV-1 JRFL envelope (HIV-1); experiment: capture ELISA, plate 1, mAb 0.8 ug/ml
[10] = target: HIV-1 JRCSF envelope (HIV-1) (UniProt P20871); experiment: capture ELISA, plate 1, mAb 0.8 ug/ml
[11] = target: HIV-1 envelope of gp160 clone B-Acute-010.c09 (HIV-1); experiment: capture ELISA, plate 1, mAb 0.8 ug/ml
[12] = target: HIV-1 envelope clone G-011.c05 (multiclade gp160 clone panel) (HIV-1); experiment: capture ELISA, plate 1, mAb 0.8 ug/ml
[13] = target: HIV-1 envelope clone BF-002.c08 (multiclade gp160 clone panel) (HIV-1); experiment: capture ELISA, plate 1, mAb 0.8 ug/ml
[14] = target: HIV-1 envelope clone G-011.c02 (multiclade gp160 clone panel) (HIV-1); experiment: capture ELISA, plate 1, mAb 0.8 ug/ml
[15] = target: HIV-1 envelope of gp160 clone AG-010.c14 (HIV-1); experiment: capture ELISA, plate 1, mAb 0.8 ug/ml
[16] = target: HIV-1 envelope of gp160 clone B-Chronic-014.c02 (HIV-1); experiment: capture ELISA, plate 1, mAb 0.8 ug/ml
[17] = target: HIV-1 envelope of gp160 clone B-Acute-010.c08 (HIV-1); experiment: capture ELISA, plate 1, mAb 0.3 ug/ml
[18] = target: HIV-1 16055 envelope (HIV-1); experiment: capture ELISA, plate 1, mAb 0.3 ug/ml
[19] = target: HIV-1 envelope clone F1-002.c16 (multiclade gp160 clone panel) (HIV-1); experiment: capture ELISA, plate 1, mAb 0.3 ug/ml
[20] = target: HIV-1 envelope of gp160 clone B-Acute-009-c08 (HIV-1); experiment: capture ELISA, plate 1, mAb 0.3 ug/ml
[21] = target: HIV-1 envelope of gp160 clone B-Acute-008.c11 (HIV-1); experiment: capture ELISA, plate 1, mAb 0.3 ug/ml
[22] = target: HIV-1 envelope of gp160 clone AG-010.c11 (HIV-1); experiment: capture ELISA, plate 1, mAb 0.3 ug/ml
[23] = target: HIV-1 envelope clone BF-002.c05 (multiclade gp160 clone panel) (HIV-1); experiment: capture ELISA, plate 1, mAb 0.3 ug/ml
[24] = target: HIV-1 envelope clone F1-002.c11 (multiclade gp160 clone panel) (HIV-1); experiment: capture ELISA, plate 1, mAb 0.3 ug/ml
[25] = target: HIV-1 JRFL envelope (HIV-1); experiment: capture ELISA, plate 1, mAb 0.3 ug/ml
[26] = target: HIV-1 envelope of gp160 clone B-Acute-010.c09 (HIV-1); experiment: capture ELISA, plate 1, mAb 0.3 ug/ml
[27] = target: HIV-1 envelope clone G-011.c05 (multiclade gp160 clone panel) (HIV-1); experiment: capture ELISA, plate 1, mAb 0.3 ug/ml
[28] = target: HIV-1 envelope clone BF-002.c08 (multiclade gp160 clone panel) (HIV-1); experiment: capture ELISA, plate 1, mAb 0.3 ug/ml
[29] = target: HIV-1 envelope clone G-011.c02 (multiclade gp160 clone panel) (HIV-1); experiment: capture ELISA, plate 1, mAb 0.3 ug/ml
[30] = target: HIV-1 envelope of gp160 clone AG-010.c14 (HIV-1); experiment: capture ELISA, plate 1, mAb 0.3 ug/ml
[31] = target: HIV-1 envelope of gp160 clone B-Chronic-014.c02 (HIV-1); experiment: capture ELISA, plate 1, mAb 0.3 ug/ml
[32] = target: aMLV envelope (from lysed pseudovirus); experiment: antigen capture ELISA, mAb 0.3 ug/ml, plate 1
[33] = target: BG505 envelope (gp120 monomer released from lysed pseudovirus) (HIV-1); experiment: antigen capture ELISA, mAb 0.3 ug/ml, plate 1
[34] = target: HIV-1 JRFL envelope (HIV-1); experiment: capture ELISA, plate 2, mAb 0.8 ug/ml
[35] = target: HIV-1 JRCSF envelope (HIV-1) (UniProt P20871); experiment: capture ELISA, plate 2, mAb 0.8 ug/ml
[36] = target: HIV-1 envelope of gp160 clone AG-010.c14 (HIV-1); experiment: capture ELISA, plate 2, mAb 0.8 ug/ml
[37] = target: HIV-1 envelope of gp160 clone B-Chronic-014.c02 (HIV-1); experiment: capture ELISA, plate 2, mAb 0.8 ug/ml
[38] = target: HIV-1 JRCSF envelope (HIV-1) (UniProt P20871); experiment: capture ELISA, plate 1, mAb 0.3 ug/ml

| Substance | ELISA OD [1] [OD] | ELISA OD [4] [OD] | ELISA OD [5] [OD] | ELISA OD [6] [OD] | ELISA OD [10] | ELISA OD [11] [OD] | ELISA OD [12] [OD] | ELISA OD [14] [OD] | ELISA OD [15] [OD] | ELISA OD [16] [OD] | ELISA OD [17] [OD] | ELISA OD [20] [OD] | ELISA OD [21] [OD] | ELISA OD [22] [OD] | ELISA OD [26] [OD] | ELISA OD [27] [OD] | ELISA OD [29] [OD] | ELISA OD [30] [OD] | ELISA OD [32] | ELISA OD [33] [OD] | further results |
| --- | --- | --- | --- | --- | --- | --- | --- | --- | --- | --- | --- | --- | --- | --- | --- | --- | --- | --- | --- | --- | --- |
| PGT151 (antibody) | 0.124 | 0.066 | 0.174 | 0.057 | 0.058 OD and 0.056 OD | 0.055 | 0.071 | 0.061 | 0.102 | 0.148 | 0.104 | 0.085 | 0.138 | 0.055 | 0.052 | 0.064 | 0.053 | 0.118 | 0.068 OD and 0.057 OD | 0.057 | ELISA OD [2]: 0.056 OD and 0.061 OD; ELISA OD [3]: 0.068 OD; ELISA OD [7]: 0.117 OD; ELISA OD [8]: 0.065 OD; ELISA OD [9]: 0.066 OD and 0.05 OD; ELISA OD [13]: 0.05 OD; ELISA OD [18]: 0.053 OD and 0.058 OD; ELISA OD [19]: 0.062 OD; ELISA OD [23]: 0.08 OD; ELISA OD [24]: 0.054 OD; ELISA OD [25]: 0.074 OD and 0.055 OD; ELISA OD [28]: 0.055 OD; ELISA OD [31]: 0.195 OD; ELISA OD [34]: 0.077 OD and 0.054 OD; ELISA OD [35]: 0.064 OD and 0.055 OD; ELISA OD [36]: 0.131 OD; ELISA OD [37]: 0.2 OD |
| PG9 (antibody) | 0.161 | 0.076 | 0.168 | 0.506 | 0.24 OD and 0.235 OD | 0.08 | 0.172 | 0.064 | 0.67 | 1.22 | 0.089 | 0.062 | 0.114 | 0.278 | 0.073 | 0.104 | 0.064 | 0.339 | 0.068 OD and 0.067 OD | 0.162 | ELISA OD [2]: 0.313 OD and 0.242 OD; ELISA OD [9]: 0.064 OD and 0.096 OD; ELISA OD [18]: 0.184 OD and 0.188 OD; ELISA OD [25]: 0.066 OD and 0.072 OD; ELISA OD [38]: 0.158 OD and 0.171 OD; ELISA OD [31]: 0.564 OD; ELISA OD [34]: 0.06 OD and 0.05 OD; ELISA OD [35]: 0.146 OD and 0.147 OD; ELISA OD [36]: 0.528 OD; ELISA OD [37]: 0.768 OD |
| PGT145 (antibody) | 0.114 | 0.062 | 0.078 | 0.054 | 0.058 OD and 0.056 OD | 0.06 | 0.08 | 0.062 | 0.054 | 0.083 | 0.081 | 0.058 | 0.099 | 0.06 | 0.065 | 0.076 | 0.084 | 0.055 | 0.057 OD and 0.116 OD | 0.066 | ELISA OD [2]: 0.065 OD and 0.059 OD; ELISA OD [3]: 0.269 OD; ELISA OD [7]: 0.169 OD; ELISA OD [8]: 0.067 OD; ELISA OD [9]: 0.057 OD and 0.051 OD; ELISA OD [13]: 0.054 OD; ELISA OD [18]: 0.057 OD and 0.069 OD; ELISA OD [19]: 0.164 OD; ELISA OD [23]: 0.106 OD; ELISA OD [24]: 0.061 OD; ELISA OD [25]: 0.063 OD and 0.071 OD; ELISA OD [38]: 0.083 OD and 0.072 OD; ELISA OD [28]: 0.065 OD; ELISA OD [31]: 0.056 OD; ELISA OD [34]: 0.062 OD and 0.054 OD; ELISA OD [35]: 0.087 OD and 0.063 OD; ELISA OD [36]: 0.074 OD; ELISA OD [37]: 0.059 OD |
| PG16 (antibody) | 0.132 | 0.058 | 0.164 | 0.177 | 0.169 OD and 0.154 OD | 0.073 | 0.099 | 0.057 | 0.491 | 0.365 | 0.083 | 0.053 | 0.163 | 0.141 | 0.062 | 0.085 | 0.063 | 0.265 | 0.053 OD and 0.096 OD | 0.067 | ELISA OD [3]: 0.341 OD; ELISA OD [7]: 0.518 OD; ELISA OD [8]: 0.146 OD; ELISA OD [13]: 0.134 OD; ELISA OD [19]: 0.229 OD; ELISA OD [23]: 0.352 OD; ELISA OD [24]: 0.088 OD; ELISA OD [38]: 0.122 OD and 0.186 OD; ELISA OD [28]: 0.109 OD; ELISA OD [31]: 0.288 OD; ELISA OD [35]: 0.135 OD and 0.136 OD; ELISA OD [36]: 0.51 OD; ELISA OD [37]: 0.318 OD |
| PGV04 (antibody) | 0.631 | 0.079 | 0.053 | 0.101 | 0.896 OD and 1.04 OD | 0.902 | 0.136 | 0.282 | 0.15 | 2.9 | 0.287 | 0.07 | 0.055 | 0.07 | 0.432 | 0.08 | 0.167 | 0.093 | 0.052 OD and 0.057 OD | 0.45 | ELISA OD [3]: 0.118 OD; ELISA OD [7]: 1.91 OD; ELISA OD [8]: 0.079 OD; ELISA OD [13]: 1.27 OD; ELISA OD [19]: 0.083 OD; ELISA OD [23]: 0.881 OD; ELISA OD [24]: 0.082 OD; ELISA OD [38]: 0.481 OD and 0.603 OD; ELISA OD [28]: 0.663 OD; ELISA OD [35]: 1.03 OD and 1.35 OD; ELISA OD [36]: 0.169 OD; ELISA OD [37]: 3.37 OD |
